Earlier results as cited in publication PMC10810742.

Molecular target: Ubiquitin (Homo sapiens) (UniProt P0CG47)

Chain of CteC (Q7NY09 whole entry): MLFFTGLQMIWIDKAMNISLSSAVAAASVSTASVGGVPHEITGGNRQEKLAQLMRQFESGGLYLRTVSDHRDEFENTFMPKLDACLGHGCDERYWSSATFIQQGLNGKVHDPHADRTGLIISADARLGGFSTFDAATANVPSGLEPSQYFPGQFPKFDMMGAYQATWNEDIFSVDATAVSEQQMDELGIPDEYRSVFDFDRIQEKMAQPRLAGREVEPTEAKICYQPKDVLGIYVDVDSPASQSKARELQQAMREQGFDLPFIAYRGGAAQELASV

For CteC (from UniProt Q7NY09), the Kd is listed as 78.7 µM.
